Measured values as given in article PMC7781312.

Biological target: prefusion-stabilized MERS-CoV S ectodomain trimer (MERS-CoV 2P S) (MERS-CoV) (UniProt K9N5Q8)
Assay: cryo-EM structure

Sequence of prefusion-stabilized MERS-CoV S ectodomain trimer (MERS-CoV 2P S) (K9N5Q8 18-1296): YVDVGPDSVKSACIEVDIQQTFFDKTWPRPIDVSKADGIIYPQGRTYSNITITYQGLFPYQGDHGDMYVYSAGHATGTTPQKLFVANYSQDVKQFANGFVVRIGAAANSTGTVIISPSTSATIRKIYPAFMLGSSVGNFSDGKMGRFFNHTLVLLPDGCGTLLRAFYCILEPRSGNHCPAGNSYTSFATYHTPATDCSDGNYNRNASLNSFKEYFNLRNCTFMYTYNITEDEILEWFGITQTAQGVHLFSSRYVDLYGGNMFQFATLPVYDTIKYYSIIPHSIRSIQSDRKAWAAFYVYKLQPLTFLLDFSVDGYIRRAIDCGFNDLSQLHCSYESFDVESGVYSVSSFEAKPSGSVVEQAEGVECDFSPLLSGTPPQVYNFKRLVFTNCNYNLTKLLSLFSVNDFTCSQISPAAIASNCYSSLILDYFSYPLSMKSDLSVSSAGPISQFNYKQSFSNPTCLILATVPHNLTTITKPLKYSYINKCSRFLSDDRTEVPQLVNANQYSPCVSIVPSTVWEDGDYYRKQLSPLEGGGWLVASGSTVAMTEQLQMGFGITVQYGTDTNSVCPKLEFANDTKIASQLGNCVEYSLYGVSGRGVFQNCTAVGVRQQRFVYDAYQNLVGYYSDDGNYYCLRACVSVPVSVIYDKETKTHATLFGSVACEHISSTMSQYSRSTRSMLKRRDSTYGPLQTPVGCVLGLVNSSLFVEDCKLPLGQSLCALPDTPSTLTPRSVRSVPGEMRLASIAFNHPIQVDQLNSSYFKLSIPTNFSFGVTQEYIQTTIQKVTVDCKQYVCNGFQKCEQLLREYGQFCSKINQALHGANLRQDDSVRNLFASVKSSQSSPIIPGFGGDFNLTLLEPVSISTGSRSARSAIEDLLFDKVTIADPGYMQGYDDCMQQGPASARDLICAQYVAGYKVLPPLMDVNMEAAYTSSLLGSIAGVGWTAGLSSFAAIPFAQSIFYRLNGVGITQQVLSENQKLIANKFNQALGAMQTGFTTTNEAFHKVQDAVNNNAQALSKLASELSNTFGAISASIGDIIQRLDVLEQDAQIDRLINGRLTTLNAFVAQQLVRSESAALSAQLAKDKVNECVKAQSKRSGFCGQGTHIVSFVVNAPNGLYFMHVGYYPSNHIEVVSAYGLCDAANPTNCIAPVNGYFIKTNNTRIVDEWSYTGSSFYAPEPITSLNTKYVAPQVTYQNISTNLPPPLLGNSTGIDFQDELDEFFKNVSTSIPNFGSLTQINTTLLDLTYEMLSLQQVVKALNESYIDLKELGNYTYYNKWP

## prefusion-stabilized MERS-CoV S ectodomain trimer (MERS-CoV 2P S) (from UniProt K9N5Q8 18-1296) (domain or fragment)
  stoichiometry N: 3
